# From PMC3494861 (The Journal of Cell Biology, 2012)
# T1: His9-Tob38 (Tob38 with a 9x His tag, N. crassa strain Tob38HT) (N. crassa, UniProt V5IPB4 1-340)
# T1 sequence (looked up): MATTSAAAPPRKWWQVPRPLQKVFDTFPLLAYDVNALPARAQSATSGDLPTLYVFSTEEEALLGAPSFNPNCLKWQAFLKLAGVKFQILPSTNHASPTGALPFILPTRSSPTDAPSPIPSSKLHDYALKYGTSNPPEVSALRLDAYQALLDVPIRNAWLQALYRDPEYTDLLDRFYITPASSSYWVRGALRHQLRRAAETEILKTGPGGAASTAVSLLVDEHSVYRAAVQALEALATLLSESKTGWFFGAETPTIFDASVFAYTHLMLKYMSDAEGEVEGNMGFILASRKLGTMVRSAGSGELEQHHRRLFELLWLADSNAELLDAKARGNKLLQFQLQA
# T2: His9-Tob37 (Tob37 with a 9x His tag, N. crassa strain Tob37HT) (N. crassa, UniProt Q7SFC4 1-442)
# T2 sequence (looked up): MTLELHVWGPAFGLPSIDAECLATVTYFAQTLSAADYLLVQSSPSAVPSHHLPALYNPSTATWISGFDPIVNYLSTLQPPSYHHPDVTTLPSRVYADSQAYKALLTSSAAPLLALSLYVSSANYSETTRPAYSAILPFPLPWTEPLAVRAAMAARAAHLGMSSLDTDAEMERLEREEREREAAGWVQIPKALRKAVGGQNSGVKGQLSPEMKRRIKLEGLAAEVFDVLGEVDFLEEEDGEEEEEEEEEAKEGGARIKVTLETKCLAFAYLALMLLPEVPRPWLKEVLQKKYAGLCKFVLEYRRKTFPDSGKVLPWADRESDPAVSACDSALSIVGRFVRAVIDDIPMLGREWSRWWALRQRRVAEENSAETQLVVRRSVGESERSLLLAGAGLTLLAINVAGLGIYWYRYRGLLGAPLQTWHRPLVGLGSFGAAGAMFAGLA
# B1: Tob37 (endogenous) (natural protein, N. crassa, UniProt Q7SFC4 1-442, looked up)
# chain: T2 sequence (looked up)
# B2: Tob38 (endogenous) (natural protein, N. crassa, UniProt V5IPB4 1-340, looked up)
# chain: T1 sequence (looked up)
# B3: Mdm10 (endogenous) (natural protein, N. crassa, UniProt Q7SBE0 1-480, looked up)
# chain: MREFMNYITNAFYGATGWNEDNKYNELNATSRELIDFPLPRGLRLTLSSLATPHFATSYQLGSVGVVDGSISYLHSSIPLTHIAAQSDKIPLPALLRCYRRLHDLRSPGQQHYILDADPLSGLPPPPQSARALLGAASDAAVAGGALDGGNTDQDLGIYTHSLLYGRLYLPKSLLEGMIIKRFTQALQVQVRAVSEQSLRNGGTILGLVQYDKGKYGLEGLYSTDGGLLGFRGLYNFGGDASSSTCDPWTPTPGENNNNNNNNNNNNNGNAQAGEKERIYGRFSVGGELYYGTLNKSGGMSLGARFATLPAHRGTPLTATLTINPLMGNINATYALLAREYCSLATRVDFNVYSYESEWAVGMELWSNRRPAGFLLGASPSNDFEPEPHPPRKKERSFQAKMEWRLDDPEPEPEPQPTPKTRKNDEYKGVLKARLDNNLRMGLLWEGRAKSLIFSIGTGIDLHKLGEPFRSLGLEVQYSS
# What was measured:
# [1] = biological target: His9-Tob55, short isoform (N. crassa strain Tob55 short HT) (N. crassa); experiment: cryo-EM structure
# [2] = biological target: His9-Tob38 (Tob38 with a 9x His tag, N. crassa strain Tob38HT) (N. crassa) (UniProt V5IPB4); experiment: isotope dilution mass spectrometry
# [3] = biological target: His9-Tob37 (Tob37 with a 9x His tag, N. crassa strain Tob37HT) (N. crassa) (UniProt Q7SFC4); experiment: isotope dilution mass spectrometry
# [4] = biological target: Tob55 (endogenous; long, intermediate and short isoforms) (N. crassa); experiment: cross-linking
# [5] = biological target: His9-Tob55, short isoform (N. crassa strain Tob55 short HT) (N. crassa); experiment: isotope dilution mass spectrometry
# [6] = biological target: T1, His9-Tob38 (Tob38 with a 9x His tag, N. …); experiment: isotope dilution mass spectrometry
# [7] = biological target: T2, His9-Tob37 (Tob37 with a 9x His tag, N. …); experiment: isotope dilution mass spectrometry
# [8] = biological target: T2, His9-Tob37 (Tob37 with a 9x His tag, N. …); experiment: native gel or EMSA
# [9] = biological target: T1, His9-Tob38 (Tob38 with a 9x His tag, N. …); experiment: native gel or EMSA
molecule,measurement,setting,value
"His9-Tob55, short isoform (N. crassa strain Tob55 short HT) (natural protein)",stoichiometry N,[1],2
"Tob55 (endogenous; long, intermediate and short isoforms) (natural protein)",stoichiometry N,[2],1
same,stoichiometry N,[3],1
same,stoichiometry N,[4],2
B1,stoichiometry N,[5],1
same,stoichiometry N,[6],1
B2,stoichiometry N,[5],1
same,stoichiometry N,[7],1
B3,stoichiometry N,[8],1
same,stoichiometry N,[9],1
